Literature values, collected in paper PMC8495968, “Towards optimizing peptide-based inhibitors of protein–protein interactions: predictive saturation variation scanning (PreSaVS)” (RSC Chemical Biology, 2021).

Molecular target: SIM (RanBP2) 2705-2717 (Homo sapiens) (UniProt P49792)
Test: fluorescence anisotropy

Sequence of SUMO-1 (P63165 2-97): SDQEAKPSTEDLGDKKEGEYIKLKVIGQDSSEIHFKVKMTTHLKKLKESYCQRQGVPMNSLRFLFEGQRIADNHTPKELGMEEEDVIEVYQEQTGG

- Kd: 1.5 µM
Substance: SUMO-1 (from UniProt P63165)
